Target: Wild-type E. coli 70S ribosomes, purified from strain MRE600 (E. coli (endogenous in MRE600)) (UniProt P0A7R5)
Assay: co-sedimentation

- percent of total NusG recovered in the ribosomal pellet: 19%
- stoichiometry N: 1 NusG per 70S
Substance: Escherichia coli transcription factor NusG, His-tagged, wild type (from UniProt P0AFG0 1-181) (natural protein)
